Laboratory results reported in patent US20040087498A1, “Modified factor VII” (Novo Nordisk Health Care AG, priority 1991, published 2004).

Tests used:
[1] = tested on: cell-surface tissue factor on baboon smooth muscle cells; assay: Cell-surface Factor Xa generation on baboon SMCs; format: cell-based
Excerpt: A cell-surface chromogenic assay was developed, essentially as described in Example VIII above, to measure the efficacy of DEGR-FVIIa to block FVIIa binding to cell-surface tissue factor and the subsequent conversion of Factor X to Factor Xa on monolayers of baboon smooth muscle cells (SMCs). This method is a modification of those described by Sakai et al., J. Bio. Chem. 264:9980-9988 (1989) and Wildgoose et al., Proc. Natl. Acad. Sci. USA. 87:7290-7294 (1990). Baboon SMCs were obtained from the University of Washington, Seattle, Wash., and were cultured from aortic explants. The baboon SMCs were plated into 96-well culture dishes at a concentration of 8,000 cells/well in 200 μl/well DMEM culture media supplemented with 10% fetal calf serum, and maintained in this media for 4 days at 37° C. in 5% CO2. At the time of assay 110 μl of culture media was removed, and increasing concentrations of FVIIa or FVIIa in combination with DEGR-FVIIa were added to wells. A standard curve for FVIIa concentration was generated, ranging from 5 nM to 0.04 nM. […] Twenty-five microliters per well of 0.8 mM S-2222, a factor Xa-specific chromogenic substrate, in Tris buffer was added and the absorbance at 405 nm read after 60 mins in a Thermomax microplate reader (Molecular Devices Corp., Menlo Park, Calif.).

[2] = tested on: vascular lesion formation; assay: Balloon brachial artery model in baboons; format: in vivo; details: baboon brachial artery balloon model, preliminary studies
Description: Under halothane anesthesia and sterile operating conditions, animals labeled with autologous ^111In-platelets received intravenous infusions of DEGR-FVIIa using the tether system for continuous intravenous administration (initial bolus injection of 1 mg/kg followed by continuous intravenous infusion of 50 μg/kg/hr. The animals received surgical carotid endarterectomy, bilateral brachial artery or bilateral femoral artery Fogarty balloon catheter angioplasties.
The DEGR-FVIIa was administered for 7 or 30 days by continuous infusions via venous catheter using the tether system. […]
For morphometric analysis of VLF, sections embedded in paraffin and stained for connective tissue components (collagen, elastin) and with hematoxylin-eosin, were evaluated using a Zeiss Photoscope coupled with image analysis system (Thomas Optical Measurement Systems, Columbus, Ga.) consisting of high resolution (580 lines) CCD microscope camera coupled to a high resolution (700 lines) monitor, an IBM 386 chip, 80 MB computer with high resolution graphics digitablet for image acquisition and storage. Quantitative image analysis was performed using a morphometric software driver (Optimas, Bioscan, Inc., Edmonds, Wash.). Arterial cross-sections were analyzed with respect to the total area of neointimal proliferative lesion and corresponding area of arterial media. […]

[3] = molecular target: T1, cell-surface tissue factor on rat smooth muscle cells (Rattus norvegicus, UniProt P42533); assay: Dose-dependent cell-surface chromogenic activity on rat smooth muscle cells; format: cell-based
T1 construct: endogenous in cells; host or cells: rat vascular smooth muscle cells
T1 sequence (P42533 29-295): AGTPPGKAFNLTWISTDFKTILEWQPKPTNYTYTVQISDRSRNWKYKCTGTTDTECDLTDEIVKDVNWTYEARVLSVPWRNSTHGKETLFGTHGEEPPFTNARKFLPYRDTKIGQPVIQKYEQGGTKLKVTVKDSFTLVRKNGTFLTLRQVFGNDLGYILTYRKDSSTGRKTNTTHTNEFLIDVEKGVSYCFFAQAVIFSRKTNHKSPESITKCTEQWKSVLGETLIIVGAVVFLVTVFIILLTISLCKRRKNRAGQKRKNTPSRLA
Description: Rat vascular smooth muscle cells were plated into 96-well culture dishes at 4,000 cells per well in growth medium supplemented with 1% fetal calf serum (as in Table 4 without 10% fetal calf serum). […] The cells were incubated with the Factor VII mixtures for 2 hours at 37° C. After incubation, the cells were washed and incubated with 50 μl of 200 nM Factor X in tris buffered saline for 5 minutes at room temperature. Each well had 25 μl of 0.5 M EDTA and 25 μl of […] S-2222 (Kabi Pharmacia) added to it, and the plates were incubated for 40 minutes at room temperature. Chromogenic activity was analyzed at 405 nm in a microplate reader as described above.

DEGR-Factor VIIa: Recombinant human Factor VIIa with its active site derivatized by Dansyl-L-Glu-Gly-Arg-chloromethyl Ketone (DEGRck)
inhibition in the generation of Factor Xa chromogenic activity ([1]; 10-fold lower level of DEGR-FVIIa than FVIIa (5 nM)): 40%
inhibition of the chromogenic activity ([1]; equal molar ratio of DEGR-FVIIa to FVIIa (5 nM)): > 90%
benefit of therapy [2]: no measurable benefit
inhibition of the chromogenic activity ([3]; 1:1 molar ratio of DEGR-Factor VIIa:Factor VIIa): approximately 95%
OD405 ([3]; DEGR-Factor VIIa 1.56 nM co-incubated with 100 nM Factor VIIa): .116
OD405 ([3]; DEGR-Factor VIIa 6.25 nM co-incubated with 100 nM Factor VIIa): .073
OD405 ([3]; DEGR-Factor VIIa 25.00 nM co-incubated with 100 nM Factor VIIa): .026
OD405 ([3]; DEGR-Factor VIIa 100.00 nM co-incubated with 100 nM Factor VIIa): .014
OD405 ([3]; DEGR-Factor VIIa .39 nM co-incubated with 100 nM Factor VIIa): .176
